The target in one experiment is T1, Human D1A/G3 (biotinylated (AviTag)).
T1 construct: also called human Delta1A / Gamma3 TCR-Fc fusion protein
Nature of the experiment: bead binding assay: biotinylated TCR-Fc on streptavidin beads, IgG titrated, flow cytometry. For orientation: In flow cytometry, cells or beads pass a laser one at a time.

Experiment [1] deals with T2, cynomolgus Gamma/Delta1A TCR-Fc fusion protein (cynomolgus monkey, biotinylated in vitro with recombinant BirA (AviTag)).
T2 construct: First chain = delta, second = gamma; also called Cyno D1; cyno D1; not shown: Fc portion of mouse IgG, then AviTag and His6 tag at the C-terminus; Fc portion of mouse IgG
Nature of the experiment: bead binding assay (TCR-Fc on streptavidin beads, IgG titrated, flow cytometry); apparent KD, s.d. of triplicates.
Target sequence in this assay (chain, as listed by the source mutant, chain 1 of 2, one chain of several): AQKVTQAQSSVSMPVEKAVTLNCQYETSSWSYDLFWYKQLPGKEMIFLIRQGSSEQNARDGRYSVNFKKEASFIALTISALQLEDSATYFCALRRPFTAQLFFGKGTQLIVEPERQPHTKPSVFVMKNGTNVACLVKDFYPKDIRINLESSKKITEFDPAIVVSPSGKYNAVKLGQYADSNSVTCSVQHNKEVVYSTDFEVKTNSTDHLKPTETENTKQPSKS

Experiment [2] addresses T3, Cyno D2 (biotinylated (AviTag)).
T3 construct: also called cynomolgus Gamma/Delta2; Cyno D2/G
T3 delta chain: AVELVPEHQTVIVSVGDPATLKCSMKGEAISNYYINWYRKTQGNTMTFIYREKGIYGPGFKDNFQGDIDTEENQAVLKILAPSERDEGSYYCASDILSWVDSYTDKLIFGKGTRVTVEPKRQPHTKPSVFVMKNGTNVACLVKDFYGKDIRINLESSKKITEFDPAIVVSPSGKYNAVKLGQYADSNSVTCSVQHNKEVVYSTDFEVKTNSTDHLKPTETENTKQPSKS
T3 gamma chain: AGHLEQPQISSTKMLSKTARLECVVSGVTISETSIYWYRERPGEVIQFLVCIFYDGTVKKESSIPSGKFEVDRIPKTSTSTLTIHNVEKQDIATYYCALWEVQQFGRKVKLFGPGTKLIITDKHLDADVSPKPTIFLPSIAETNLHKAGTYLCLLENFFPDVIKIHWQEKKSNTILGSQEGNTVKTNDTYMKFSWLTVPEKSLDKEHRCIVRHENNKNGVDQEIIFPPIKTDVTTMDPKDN
Nature of the experiment: bead binding assay: biotinylated TCR-Fc on streptavidin beads, IgG titrated, flow cytometry.
Description: (§1) After washing, IgG bound to the beads were stained with fluorescently labeled secondary antibody and quantified using a flow cytometer (e.g., FIGS. 6, 7, 9) and others).

Experiment [3] deals with T2, cynomolgus Gamma/Delta1A TCR-Fc fusion …. The description is as above.
Description: as §1
The target in a further experiment is T4, Human D1A/G8 (biotinylated (AviTag)).
T4 construct: may be the same protein as m34; also called human Delta1A / Gamma8 TCR-Fc fusion protein
T4 sequence (delta chain, as listed by the source, chain 1 of 2): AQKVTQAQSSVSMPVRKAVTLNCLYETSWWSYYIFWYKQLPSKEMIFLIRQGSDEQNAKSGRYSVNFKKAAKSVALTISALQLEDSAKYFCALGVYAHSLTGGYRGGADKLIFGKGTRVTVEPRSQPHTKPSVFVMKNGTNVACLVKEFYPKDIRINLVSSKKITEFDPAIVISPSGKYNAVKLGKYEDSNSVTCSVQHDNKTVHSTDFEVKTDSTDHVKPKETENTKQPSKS
T4 sequence (gamma chain, as listed by the source, chain 2 of 2): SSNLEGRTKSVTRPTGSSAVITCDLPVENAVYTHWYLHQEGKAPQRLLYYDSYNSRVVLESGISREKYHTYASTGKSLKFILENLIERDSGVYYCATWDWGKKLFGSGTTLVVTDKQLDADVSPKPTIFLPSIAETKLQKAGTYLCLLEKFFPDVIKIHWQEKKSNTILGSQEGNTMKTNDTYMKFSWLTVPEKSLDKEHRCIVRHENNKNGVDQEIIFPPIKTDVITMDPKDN
The experiment is described as above.

The target in experiment [4] is T3, Cyno D2. Described as above.
Description: as §1
In experiment [5] the target is T3, Cyno D2. The experiment is described as above.
Description: as §1
The target of experiment [6] is T3, Cyno D2. The experiment is described as above.
Description: as §1
For experiment [7], the target named is T3, Cyno D2. The experiment is described as above.
Description: as §1
The target in experiment [8] is T2, cynomolgus Gamma/Delta1A TCR-Fc fusion …. Nature of the experiment: bead binding assay (TCR-Fc on streptavidin beads, IgG titrated, flow cytometry); apparent KD.
Target sequence in this assay (chain, as listed by the source mutant, chain 1 of 2, one chain of several): as the sequence (chain, as listed by the source mutant, chain 1 of 2, one chain of several) above
Description: as §1
Errors shown are s.d from triplicate experiments. Where no error is shown, the measurement was done once.
The target in experiment [9] is T3, Cyno D2. Nature of the experiment: bead binding assay: biotinylated TCR-Fc on streptavidin beads, IgG titrated, flow cytometry.
Description: as §1
The target of experiment [10] is T3, Cyno D2. The experiment is described as above.
Description: as §1
Experiment [11] addresses T3, Cyno D2. The experiment is described as above.
Description: as §1
Experiment [12] concerns the target T3, Cyno D2. Described as above.
Description: as §1

For orientation: EC50 (read off the curve) means the concentration at which the effect is half-maximal.

Read-outs that look alike come from different tables or passages of the source.

T1 sequence (delta chain, as listed by the source, chain 1 of 2): as the sequence (delta chain, as listed by the source, chain 1 of 2) above
T1 sequence (gamma chain, as listed by the source, chain 2 of 2): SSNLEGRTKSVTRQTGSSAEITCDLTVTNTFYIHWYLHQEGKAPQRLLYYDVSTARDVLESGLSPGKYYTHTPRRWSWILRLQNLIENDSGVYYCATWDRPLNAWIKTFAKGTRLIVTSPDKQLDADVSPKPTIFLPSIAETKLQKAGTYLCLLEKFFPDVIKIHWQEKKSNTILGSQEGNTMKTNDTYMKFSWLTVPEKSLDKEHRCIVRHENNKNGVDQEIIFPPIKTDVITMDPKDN
Description for Human D1A/G3: as §1
Description for Human D1A/G8: as §1

B1: Delta1-23 (antibody, V domains shown)
VH: EVQLVESGGGLVQPGGSLRLSCAASGFTVSSSSIHWVRQAPGKGLEWVASIYSSSGYTYYADSVKGRFTISADTSKNTAYLQMNSLRAEDTAVYYCARDPGSYYWYYSGSAYEGYGLDYWGQGTLVTVSS
VL: DIQMTQSPSSLSASVGDRVTITCRASQSVSSAVAWYQQKPGKAPKLLIYAASSLQSGVPSRFSGSRSGTDFTLTISSLQPEDFATYYCQQQSKYPFLITFGQGTKVEIKR
notes: Tested in the human IgG format; also called anti-Delta1-23
Consider B1, for which the binding result is on record as “binds” in the experiment with Human D1A/G3, “no binding (tested: 100 nM)” with Cyno D2 [2] and “binds” with Human D1A/G8. In experiment [1], the Kd was determined as 1.3 nM. In [3], the “EC50 (read off the curve)” value was roughly 5 nM.

B2: Delta1-30 (antibody, V domains shown)
VH: EVQLVESGGGLVQPGGSLRLSCAASGFTVSSSSIHWVRQAPGKGLEWVASIYSSSGYTYYADSVKGRFTISADTSKNTAYLQMNSLRAEDTAVYYCARDPGSYYWYYSGSAYEGYGLDYWGQGTLVTVSS
VL: DIQMTQSPSSLSASVGDRVTITCRASQSVSSAVAWYQQKPGKAPKLLIYSASSLYSGVPSRFSGSRSGTDFTLTISSLQPEDFATYYCQQSGDDLITFGQGTKVEIKR
With B2, in the experiment with Cyno D2 [4], the binding result is “no binding (tested: 100 nM)”.

B3: Delta1-22 (antibody, V domains shown)
VH: EVQLVESGGGLVQPGGSLRLSCAASGFTVSSSSIHWVRQAPGKGLEWVASIYSSSGYTYYADSVKGRFTISADTSKNTAYLQMNSLRAEDTAVYYCARDPGSYYWYYSGSAYEGYGLDYWGQGTLVTVSS
VL: DIQMTQSPSSLSASVGDRVTITCRASQSVSSAVAWYQQKPGKAPKLLIYAASSLQSGVPSRFSGSRSGTDFTLTISSLQPEDFATYYCQQRSRYYSLITFGQGTKVEIKR
notes: Tested in the human IgG format
With B3, in the experiment with Cyno D2 [5], the binding result is “no binding (tested: 100 nM)”. The Kd in [1] came out at 0.61 nM.

B4: Delta1-25 (antibody, V domains shown)
VH: EVQLVESGGGLVQPGGSLRLSCAASGFTVSSSSIHWVRQAPGKGLEWVASIYSSSGYTYYADSVKGRFTISADTSKNTAYLQMNSLRAEDTAVYYCARDPGSYYWYYSGSAYEGYGLDYWGQGTLVTVSS
VL: DIQMTQSPSSLSASVGDRVTITCRASQSVSSAVAWYQQKPGKAPKLLIYAASSLQSGVPSRFSGSRSGTDFTLTISSLQPEDFATYYCQQIGRRSSLITFGQGTKVEIKR
notes: as for B3
In the case of B4, the Kd in experiment [1] came out at 0.48 nM. Further, in the experiment with Cyno D2 [6], the binding result is listed as “no binding (tested: 100 nM)”.

B5: Delta1-20 (antibody, V domains shown)
VH: EVQLVESGGGLVQPGGSLRLSCAASGFTVSSSSIHWVRQAPGKGLEWVASIYSSSGYTYYADSVKGRFTISADTSKNTAYLQMNSLRAEDTAVYYCARDPGSYYWYYSGSAYEGYGLDYWGQGTLVTVSS
VL: DIQMTQSPSSLSASVGDRVTITCRASQSVSSAVAWYQQKPGKAPKLLIYAASSLQSGVPSRFSGSRSGTDFTLTISSLQPEDFATYYCQQYCRKSSLFTFGQGTKVEIKR
notes: as for B3
Take B5: the binding result in the experiment with Cyno D2 [7] is “no binding (tested: 100 nM)”. Also, in experiment [8], the Kd turned out to be 0.34 nM.

B6: Delta1-26 (antibody, V domains shown)
VH: EVQLVESGGGLVQPGGSLRLSCAASGFTVSSSSIHWVRQAPGKGLEWVASIYSSSGYTYYADSVKGRFTISADTSKNTAYLQMNSLRAEDTAVYYCARDPGSYYWYYSGSAYEGYGLDYWGQGTLVTVSS
VL: DIQMTQSPSSLSASVGDRVTITCRASQSVSSAVAWYQQKPGKAPKLLIYAASSLQSGVPSRFSGSRSGTDFTLTISSLQPEDFATYYCQQQQRYSYLITFGQGTKVEIKR
notes: as for B3
Regarding B6, in experiment [1], the Kd amounted to 0.26 nM. The binding result in the experiment with Cyno D2 [9] was “no binding (tested: 100 nM)”.

B7: Delta1-24 (antibody, V domains shown)
VH: EVQLVESGGGLVQPGGSLRLSCAASGFTVSSSSIHWVRQAPGKGLEWVASIYSSSGYTYYADSVKGRFTISADTSKNTAYLQMNSLRAEDTAVYYCARDPGSYYWYYSGSAYEGYGLDYWGQGTLVTVSS
VL: DIQMTQSPSSLSASVGDRVTITCRASQSVSSAVAWYQQKPGKAPKLLIYAASSLQSGVPSRFSGSRSGTDFTLTISSLQPEDFATYYCQQSNRSYPPLTFGQGTKVEIKR
notes: as for B3
Turning to B7, the Kd in experiment [8] is 1.16 nM. Besides, in the experiment with Cyno D2 [10], the binding result is “no binding (tested: 100 nM)”.

B8: Delta1-21 (antibody, V domains shown)
VH: EVQLVESGGGLVQPGGSLRLSCAASGFTVSSSSIHWVRQAPGKGLEWVASIYSSSGYTYYADSVKGRFTISADTSKNTAYLQMNSLRAEDTAVYYCARDPGSYYWYYSGSAYEGYGLDYWGQGTLVTVSS
VL: DIQMTQSPSSLSASVGDRVTITCRASQSVSSAVAWYQQKPGKAPKLLIYAASSLQSGVPSRFSGSRSGTDFTLTISSLQPEDFATYYCQQQQRTSYLITFGQGTKVEIKR
notes: as for B3
B8: the Kd in experiment [1] was determined as 1.74 nM. Besides, the binding result with Cyno D2 [11] is listed as “no binding (tested: 100 nM)”.

B9: Delta1-18 (antibody, V domains shown)
VH: EVQLVESGGGLVQPGGSLRLSCAASGFTVSSSSIHWVRQAPGKGLEWVASIYSSSGYTYYADSVKGRFTISADTSKNTAYLQMNSLRAEDTAVYYCARDPGSYYWYYSGSAYEGYGLDYWGQGTLVTVSS
VL: DIQMTQSPSSLSASVGDRVTITCRASQSVSSAVAWYQQKPGKAPKLLIYAASSLQSGVPSRFSGSRSGTDFTLTISSLQPEDFATYYCQQRSRVYSLVTFGQGTKVEIKR
notes: as for B3
Consider B9, for which the binding result with Cyno D2 [12] is reported as “no binding (tested: 100 nM)”. Also, in experiment [8], the Kd is 0.15 nM.

These data come from patent US20250333506A1 (NEW YORK UNIVERSITY, published 2025).
